{"source": "the nanobody polyreactivity screen of Harvey et al. (2022)", "data": [{"experiment": "yeast display, Sf9 membrane polyspecificity reagent, FACS + sequencing; frameworks hold sequencing errors", "how_it_was_run": "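In a synthetic yeast display library (Saccharomyces cerevisiae BJ5465), nanobody expression was induced with galactose for 36–48 hours. FACS gates were set low and high (top ~1%) using anti-HA fluorescence for expression and streptavidin fluorescence for binding of the Sf9 membrane reagent. Each polyreactivity label is drawn from the gate of origin.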", "values": [{"sequence": "QVQIEESGGGLVQAGGSLRLICAASGRIFLPYVMGWYRQAPGKERELVATITFGRSTTYADSVKGRFTISRDNAKNTVYLQMNCLKPEDTAFYYCNALSALAVEDGYWGHGTQVTVSS", "polyreactivity (PSR sort gate)": "low polyreactivity"}, {"sequence": "QVQIEESGGGLVQAGGSLRLSCAASGLIFGSYVMGWYRQAPGKERELVAAITVRTGTTYYADSVKGRFTISRDNAKNTVYLKMNSLKPEDTAVYYCALRYRPKYGYWGQGTQVTVSS", "polyreactivity (PSR sort gate)": "high polyreactivity"}, {"sequence": "QVQIEESGGGLVQAGGSLRLSCAASGSIFGKYAMGWYRQAPGKERELVAAITWSGGYTRYADSGKGRFTISRDKAKNTVYLLMNSLKPEDTAVYYCADPSTESKYYYWGQGTQVTVSS", "polyreactivity (PSR sort gate)": "high polyreactivity"}, {"sequence": "QVQIEESGGGLVQAGGSLRLSCAASGSTFGSYAMGWYRQAPGKEREFVAAISKRGGSTYYADSVKGRFTISRDNAKNTVYLQMNSLKPEDTAVYYCNRRQEYYSLHKTFNYWGQGTQVTVSS", "polyreactivity (PSR sort gate)": "high polyreactivity"}, {"sequence": "QVQIEESGGRLVQAGGILRLSCAASGRPFNVNFKGWNRQAPGKEWELVAAIRYTGGSTYADSVKGRFTISRDNAKNTVYLQMNSLKPEDTAVYYCNADTVFPFDHGMDYWGQGTQVTVSS", "polyreactivity (PSR sort gate)": "low polyreactivity"}, {"sequence": "QVQILESGGGLVQAEGSIRLSCDASGRTFRPYAMGWSRQAPGKDRELVAVISYSGVSTYYADSVKGRFTISRDTEQNNVYLLLNSQIPEDTAVYYCLIRFRKTHYDYWGQGSQVTVSS", "polyreactivity (PSR sort gate)": "high polyreactivity"}, {"sequence": "QVQIVDSGAVIVQAGGSLRLSCDASGRIILINAMGWYRQAPGKERELVAAITSSGGSTYYADSVKGRFTISRDNAKNTVYLQMNSLKPEDTAVYYCAAARYSRYDYWGQGTQVTVSS", "polyreactivity (PSR sort gate)": "high polyreactivity"}, {"sequence": "QVQIVDSGGGLVQAGCSLRLSCAASGFTFFSYAMGWYRQAHWKERELVAAISRSGGRKYYADSVKGRFTISRDNAKNTVYLLMNSLKPEDTAVYYCAAETKTIPFEYWGQGTQVTVSS", "polyreactivity (PSR sort gate)": "high polyreactivity"}, {"sequence": "QVQIVDSGGGLVQAGGSLRLSCAASGRIIRGYAMGWYRQAPGKERELVAAITFSGGSPYYADSVKGRFTISRDNAKNTVYLHMNSLKPEDTAVYYCAAAYGGSSYEYNYWGQGTQVTVSS", "polyreactivity (PSR sort gate)": "low polyreactivity"}, {"sequence": "QVQIVDSGGGLVQAGGSLSLSCAASGSTIYRYAMGWYRQAPGKERELVAAITSAGSTNYADSVKGRFTISRDNAKNTVYLQMNSLKPEDTAVYYCAADHGRPYFSYDYWGQGTQVTVSS", "polyreactivity (PSR sort gate)": "low polyreactivity"}, {"sequence": "QVQIVESGAGLVQAGGSLSLSCAASGSIFHDNAMGWYRQAPGKERELVAAINRGGSRHYADSVKGRFTISRDNAKNTVYFQMNSLKPEDTAVYYCAADGIRPEVGYWGQGTQVTVSS", "polyreactivity (PSR sort gate)": "low polyreactivity"}, {"sequence": "QVQIVESGGCLVQAGGSLRLICAASGNTFRWYDMGWYIQAPRKEREFVADITVRGGSTYYADSVKGRFTISRDNAKNTVYLQMNCLKPEDTAVYYCAVDFRRYPGFDYWGQGTQVTVSS", "polyreactivity (PSR sort gate)": "low polyreactivity"}, {"sequence": "QVQIVESGGGIVQAGGSLRLSCAASGLTFHQYTMGWYRQAPGKERELVAAISSGGSTNYADSVKGRFTISRDNAKNTVFLQMNSLKPEDTAVYYCAADKYYFAYDYWGQGTQVNVSS", "polyreactivity (PSR sort gate)": "low polyreactivity"}, {"sequence": "QVQIVESGGGLDQAGGSLRLSCADSGSILYYYAMGCYRQAPGKETELVATITDSGDSTYYADSVKGRFTISRDNAKNTVYLQMNSLKPEDTAVYYCAAEGRYFYFTVKMDYWGQGTQVTVSS", "polyreactivity (PSR sort gate)": "low polyreactivity"}, {"sequence": "QVQIVESGGGLVQAGASLRLSCAASGSISKSYAMGWYRQAPGKERELVAAISWRGGSTYADSVKGRFTISRDNAENTVYSLMNSLKPEDTAVYYCAATNYGSFWGGQSERYDYWGQGTQVTVSS", "polyreactivity (PSR sort gate)": "low polyreactivity"}, {"sequence": "QVQIVESGGGLVQAGCILRLSCAASGSTFYVNAMGWYRQAPGKEWELVAVISTGGSTYYADSVKGRFTISRDNAKNTVYLQMNSLKPEDTAVYYCAKRDLPDCSGTPNVIPFDYWGQGTQVTVSS", "polyreactivity (PSR sort gate)": "low polyreactivity"}, {"sequence": "QVQIVESGGGLVQAGGRLRLSCAASGFTLYRYAMGWYRQAPGKEREFVAAITRTGGTTYYADSVKGRFTISRDNAKNTVYLQMNSLKPEDTAVYYCAAGANAWYSYRYDYWGQGTQVTVSS", "polyreactivity (PSR sort gate)": "high polyreactivity"}, {"sequence": "QVQIVESGGGLVQAGGRLRLSCAASGGIFKTYPMGWYRQAPGKERELVARINSRGGRTYYADSVKGRFTISRDYAKKTVYLQMNSLKPEATAVYYCAVRNPRYFNEYDYWGQGTQVTVSS", "polyreactivity (PSR sort gate)": "low polyreactivity"}, {"sequence": "QVQIVESGGGLVQAGGSLRFSCAASGRTFGTNTMGWYRQAPGKERELVATISSSSGSTYYADSVKGRFTISRDNAKNTVYLQMNSLKPEDTAVYYCAALSRWRYKRYDYWGQGTQVTVSS", "polyreactivity (PSR sort gate)": "high polyreactivity"}, {"sequence": "QVQIVESGGGLVQAGGSLRISCAASGFTFRYYVMGWYRQAPGKEREFVAAISRSGGITYADSVKGRFTISRDNAKNTVYLQMNSLKPEDTAVYYCNAKSRTGYGRGDYWGQGTQVTVSS", "polyreactivity (PSR sort gate)": "high polyreactivity"}, {"sequence": "QVQIVESGGGLVQAGGSLRISCAASGFTFYPYTMGWYRQAPGKEREFVAAISWNCGSTYYADSVKGRFTISCDNAKNTVYLQMNSLKPEDSAVYYCAKRSYRSSARELDYWGQGTQVTVSS", "polyreactivity (PSR sort gate)": "low polyreactivity"}, {"sequence": "QVQIVESGGGLVQAGGSLRISCAASGRTFVYNTMGWSRQAPGKERELVAAITDRGTSTFYADSVKGRFTISRDNAKNTVDLQMNSLKPEDTAVYYCAKDWLVTEFDYWAQGTQVTVSS", "polyreactivity (PSR sort gate)": "low polyreactivity"}, {"sequence": "QVQIVESGGGLVQAGGSLRISCAASGRTLRYNTMGWSRKAPGKERELVAAISIRGGSTYYADSVKGRFTISRDNAKYTVYLQMISLKAEDTAVYYCNVVFQKAARIVEVDYWGQGTQVSVSS", "polyreactivity (PSR sort gate)": "high polyreactivity"}, {"sequence": "QVQIVESGGGLVQAGGSLRISCAPSGLIFAYYAMGRYRQAPGKERELVAAISSVGSTYYADSVKGRFTISRDNAKNTVYLQMNSLKPEDTAVYYCAAALYPYYWPEYNYWGQGTQVNVSS", "polyreactivity (PSR sort gate)": "high polyreactivity"}, {"sequence": "QVQIVESGGGLVQAGGSLRLRCAASGLTFYVYVMGWYRQAPGKEREFVAAISYDGDSTYYADSVKGRFTISRDNAKNTVFFQMNSLIAEDTAVYYCNADRYPYWGYDYWGQGTQVTVSS", "polyreactivity (PSR sort gate)": "low polyreactivity"}, {"sequence": "QVQIVESGGGLVQAGGSLRLRCAASGSIFSTYAMGWYRQEPGKERELVADISGRVGSTYYADSVKGRFTISRDNAKNTVYLQMNSLKPEDTAVYYCAAALDFWPGYEYYYWGQGTQVTVSS", "polyreactivity (PSR sort gate)": "low polyreactivity"}, {"sequence": "QVQIVESGGGLVQAGGSLRLSCAASGFIFGIYDMGWYRQAPGKERELYADSVKGRFTISRDNAKNTVYLQMNSVKPEDTAVYYCNRAQGVHTYVYRYGYWGQGTQVTESS", "polyreactivity (PSR sort gate)": "low polyreactivity"}, {"sequence": "QVQIVESGGGLVQAGGSLRLSCAASGFIFVFNAMGWYRQAPGKERELVAAINGGDITNYADSVKGRFTISRDNAKNTVYLQMNSLKPEDTAVYYCAADGEDSLWTGYDYDYWGQGNQVTVSS", "polyreactivity (PSR sort gate)": "low polyreactivity"}, {"sequence": "QVQIVESGGGLVQAGGSLRLSCAASGFTFPHNAMGWYRQAPGKERELVAAITSSGGSTYYADSVKGRFTISRDNAKNPVYLEMNSLKPEDTAVYYCAAYWAYGGYESWGQGTQVTVSS", "polyreactivity (PSR sort gate)": "high polyreactivity"}, {"sequence": "QVQIVESGGGLVQAGGSLRLSCAASGFTFVINDMGWYRQAPGKERELVADITSGGDTYYADSVKGRFTISRDNAKNTVYLQMNSLKPEDTAVYYCAADIYPDWIYLLYGYWGQGTQVTVSS", "polyreactivity (PSR sort gate)": "low polyreactivity"}, {"sequence": "QVQIVESGGGLVQAGGSLRLSCAASGITFTVYAMGWYRQAPGKVRELVAAINSGSSTNYADSVKGRFTISRDNAKNTVYLQMNSLNPEDTAVYYCAASYRKLPDKKRYGYWGQGTQVTVSS", "polyreactivity (PSR sort gate)": "high polyreactivity"}, {"sequence": "QVQIVESGGGLVQAGGSLRLSCAASGNTISYYDMGWYRQAPGKERELVADISSGGSTYYADSLKGRFTISRDNAKNTVYLQMNSLKPEDTAVYYCNAVVYIRGTAGTYYYWGQGTQVTVSS", "polyreactivity (PSR sort gate)": "high polyreactivity"}, {"sequence": "QVQIVESGGGLVQAGGSLRLSCAASGRIFGPYPMGWYRQAHVKERELVAAISCRGSSTYYADSVKGRFSISRDYAKNTVYLHMIILKPEDTAVFYCAKYPTYSYDYWGQGTQVTVSS", "polyreactivity (PSR sort gate)": "high polyreactivity"}, {"sequence": "QVQIVESGGGLVQAGGSLRLSCAASGRIFGYNTMGWYRQAPGKERELVASISYYGGGPYYADSVKGRFTISRDLAKYTFYLQMNSLKPEDTAVYYCNALSYGYDDAYGYWGQGTQVTVSS", "polyreactivity (PSR sort gate)": "low polyreactivity"}, {"sequence": "QVQIVESGGGLVQAGGSLRLSCAASGRIFRRYAMGWYRQAPGKEREFVAAISYGGGATYYADSVKGRFTISRDNAKNTFYLQMNSLKPEDTAVYYCNAEVPKSLLLYYPWGYGYWGQGTQVTVSS", "polyreactivity (PSR sort gate)": "low polyreactivity"}, {"sequence": "QVQIVESGGGLVQAGGSLRLSCAASGRIFRVNWIGWYRQAPGKESELVAAIRRSGGSTYYADSVKGRFTISRDNAKNTVYLQMNSLKPEDTAVYFCAAPVRQSSYTRYDSWGQGTQVTVSS", "polyreactivity (PSR sort gate)": "high polyreactivity"}, {"sequence": "QVQIVESGGGLVQAGGSLRLSCAASGRIFVVIAMGWYRQAPGKERELVATITRGASTYADSVKGRFTISRDNAKNTVYLQMNSLKPEDTAVYYCAAAKRPQVVRYDWTKLEYWGQGTQVTVSS", "polyreactivity (PSR sort gate)": "high polyreactivity"}, {"sequence": "QVQIVESGGGLVQAGGSLRLSCAASGRIYRYVMGWYRQAPGKERELVATITGSGGSTYYADSVKGRFTISRDNAKNTAYLQMNSLKPEDTAVYYCAAAGRGSWTTYRFDYWGLGTQVTVSS", "polyreactivity (PSR sort gate)": "high polyreactivity"}, {"sequence": "QVQIVESGGGLVQAGGSLRLSCAASGRNFGRYAMGWYRHAPRKERELVATISSGGSTYYADSVKGRFTISRDNAKNTVYLPMNSLKQEDTAVYYCAADYLSYYLYEGSIKYGYWGQGTQVSVSS", "polyreactivity (PSR sort gate)": "high polyreactivity"}, {"sequence": "QVQIVESGGGLVQAGGSLRLSCAASGRTFLVNSMGWYRQAPGKEMELVAVITNGGSTYADSVKGRFTISRDNAKNTVYLQMNSLKPEDTAVYNCAARGNRWRSPSGSPYYYWGQGTQVTVSS", "polyreactivity (PSR sort gate)": "high polyreactivity"}, {"sequence": "QVQIVESGGGLVQAGGSLRLSCAASGRTIGVYAMGWYRQAPRKERELVAAITGDGTKDYADSVKGRFRFSRAISKITVYLQMNSLKPEDTAVYYCAVGGAGSDDYWGQGTQVTVSS", "polyreactivity (PSR sort gate)": "low polyreactivity"}, {"sequence": "QVQIVESGGGLVQAGGSLRLSCAASGRTYYYAMGWYRQAPGKERELVAAITESGDNTYYADSVKGRFTISRDNAKNTVYLQMNSLKPEDTAVYYCAVDYPSPSYYYEYYYWGQGTQVTVSS", "polyreactivity (PSR sort gate)": "high polyreactivity"}, {"sequence": "QVQIVESGGGLVQAGGSLRLSCAASGSIFGYYVMGWNRQAPGKERELVAAISSGGGNTYYADSVKGRFTISRDNAKNTVYLQMISLKPEDTAVYYCAALRSWRKTGGAQRYWYDYWGHGTQVTVSS", "polyreactivity (PSR sort gate)": "high polyreactivity"}]}]}
